Experimental data reported in paper PMC4073888.

Molecular target: T1, 6xHis-NELF-E-mOrange (Drosophila, UniProt P92204 1-280)
T1 sequence: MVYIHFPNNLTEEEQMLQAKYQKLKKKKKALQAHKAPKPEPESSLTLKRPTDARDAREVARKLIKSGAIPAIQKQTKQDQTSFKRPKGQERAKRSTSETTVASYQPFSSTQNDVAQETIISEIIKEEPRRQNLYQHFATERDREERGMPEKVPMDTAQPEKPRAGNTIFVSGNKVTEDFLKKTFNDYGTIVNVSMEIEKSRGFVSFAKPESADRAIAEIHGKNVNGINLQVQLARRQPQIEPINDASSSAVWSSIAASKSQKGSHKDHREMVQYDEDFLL
Experiment: HiTS-RAP fluorescence

B1: NELFapt A39U_U61A (structured_RNA)
RNA: GGGAAUGGAUCCACAUCUACGAAUUCCCAACGACUGCCGAGCGAGAUUACGCUUGAGCGCCCCUCUGAGGAUGCCCACGGGCGAUAGGGGCACGGCUUCACUGCAGACUUGACGAAGCUU
binding result: binds
